Source: publication PMC4805542

Test system: ZF6-DB (synthetic construct)
Experiment: EMSA
Details: 1.5 uM protein, DNA titrated 145-250 nM; apparent Kd, Scatchard; 6.25 mM MgCl2; 25 mM Hepes pH 7.9, 50 mM KCl, 6.25 mM MgCl2, 1% Nonidet P-40, 5% glycerol; 15 min on ice; 5% PAGE in 0.5x TBE at 4 C

hRHO 65 bp duplex oligonucleotide
Kd: 41.9 nM
